Laboratory results from publication PMC6426468 (Science Advances, 2019).

What was measured:
[1] = target: T1, GST–prelamin A (human, UniProt P02545 1-664); experiment: pull-down
T1 sequence (looked up): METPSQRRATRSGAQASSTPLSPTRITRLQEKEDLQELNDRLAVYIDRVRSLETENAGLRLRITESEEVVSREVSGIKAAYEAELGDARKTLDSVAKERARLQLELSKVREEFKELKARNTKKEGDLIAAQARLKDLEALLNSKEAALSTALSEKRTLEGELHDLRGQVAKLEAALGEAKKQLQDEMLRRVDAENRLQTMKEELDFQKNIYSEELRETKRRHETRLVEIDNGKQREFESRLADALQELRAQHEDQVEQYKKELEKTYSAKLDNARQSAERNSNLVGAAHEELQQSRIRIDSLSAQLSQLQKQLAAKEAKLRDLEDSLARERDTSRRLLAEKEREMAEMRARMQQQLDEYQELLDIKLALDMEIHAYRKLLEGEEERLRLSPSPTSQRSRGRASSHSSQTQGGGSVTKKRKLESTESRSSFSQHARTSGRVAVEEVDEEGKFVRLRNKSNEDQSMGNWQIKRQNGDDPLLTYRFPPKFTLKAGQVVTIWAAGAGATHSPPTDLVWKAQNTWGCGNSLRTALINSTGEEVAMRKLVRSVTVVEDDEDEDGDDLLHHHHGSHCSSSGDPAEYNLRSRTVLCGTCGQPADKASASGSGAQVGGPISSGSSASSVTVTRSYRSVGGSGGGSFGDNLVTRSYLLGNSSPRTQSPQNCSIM

[2] = target: T2, GST–lamin A (human, UniProt P02545 1-646); experiment: pull-down
T2 sequence (looked up): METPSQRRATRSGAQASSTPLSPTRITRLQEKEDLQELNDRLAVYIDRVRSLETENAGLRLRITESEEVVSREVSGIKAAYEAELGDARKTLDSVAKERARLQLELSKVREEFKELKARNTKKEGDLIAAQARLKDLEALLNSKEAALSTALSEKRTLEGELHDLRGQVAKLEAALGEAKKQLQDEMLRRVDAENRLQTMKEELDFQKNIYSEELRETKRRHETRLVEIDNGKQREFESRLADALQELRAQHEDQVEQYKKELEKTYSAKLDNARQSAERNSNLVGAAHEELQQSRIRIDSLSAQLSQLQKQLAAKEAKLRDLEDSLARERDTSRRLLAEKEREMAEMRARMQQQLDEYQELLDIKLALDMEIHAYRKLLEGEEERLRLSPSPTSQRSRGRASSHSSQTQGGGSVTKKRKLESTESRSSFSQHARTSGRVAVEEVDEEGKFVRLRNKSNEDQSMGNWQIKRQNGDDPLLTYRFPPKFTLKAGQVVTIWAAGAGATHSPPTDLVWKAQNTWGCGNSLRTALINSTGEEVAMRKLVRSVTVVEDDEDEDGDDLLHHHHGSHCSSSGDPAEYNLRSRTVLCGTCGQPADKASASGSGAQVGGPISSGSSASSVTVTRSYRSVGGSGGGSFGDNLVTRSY

B1: CK2β (in vitro pull-down) (natural protein)
chain: not shown
binding result [1]: binds | binding result [2]: binds
